Test results published in patent publication US20210155712A1 (HUMMINGBIRD BIOSCIENCE HOLDINGS PTE, published 2021).
Blank lines part the entries; values can stand above or below the binder they belong to.

Experiments:
human EGFR [1] = target: T1, human EGFR (human, UniProt P00533 25-645); experiment: ELISA, coated human EGFR (HER1), antibody titrated, absorbance 450 nm
T1 construct: also called human HER1 (EGFR); human EGFR-His

human HER2 [2] = target: T2, human HER2 (human, UniProt P04626 23-652); experiment: ELISA, coated human HER2, antibody titrated, absorbance 450 nm
T2 construct: also called His-tagged HER2 protein

[3] = target: T3, human HER3 expressed on cells (human, UniProt P21860 20-1342); experiment: flow cytometry on HEK293 cells overexpressing human HER3, 20 ug/ml antibody, FITC anti-Fc secondary
T3 construct: HEK293 cells transfected with a vector encoding human HER3; Also used here for HER3 on U2OS PathHunter cells and cancer cell lines; also called HEK293 HER3 O/E cells; HER3-expressing cells
Protocol: The cells were washed thrice with FACS buffer (PBS with 5 mM EDTA and 0.5% BSA) and resuspended in FITC-conjugated anti-FC antibody (Invitrogen, USA) for 40 min at 2-8° C. Cells were washed again and resuspended in 200 μL of FACS flow buffer (PBS with 5 mM EDTA) for flow cytometric analysis using MACSQuant 10 (Miltenyi Biotec, Germany). After acquisition, all raw data were analyzed using Flowlogic software. Cells were gated using forward and side scatter profile percentage of positive cells was determined for native and overexpressing cell populations.

human HER2 [4] = target: T2, human HER2; experiment: ELISA, plate coated with 0.1 ug/ml target polypeptide, antibody titrated, absorbance 450 nm
Protocol: (§1) ELISAs were used to determine the binding specificity of the antibodies. […] The antibodies were also analysed for their ability to bind to human EGFR and human HER2 (Sino Biological Inc., China).
(§2) ELISAs were carried out according to standard protocols. Briefly, 96-well plates (Nunc, Denmark) were coated with 0.1 μg/ml of target polypeptide in phosphate-buffered saline (PBS) for 16 h at 4° C. After blocking for 1 h with 1% BSA in Tris buffer saline (TBS) at room temperature, the anti-HER3 antibody was serially diluted with the highest concentration being 10 μg/ml, and added to the plate. Post 1 h incubation at room temperature, plates were washed three times with TBS containing 0.05% Tween 20 (TBS-T) and were then incubated with a HRP-conjugated […] antibody (Life Technologies, Inc., USA) for 1 h at room temperature. After washing, plates were developed with colorimetric detection substrate 3,3′,5,5′-tetramethylbenzidine (Turbo-TMB; Pierce, USA) for 10 min. The reaction was stopped with 2M H₂SO₄, and OD was measured at 450 nm.

human EGFR [5] = target: T1, human EGFR; experiment: as above
Protocol: as §1, §2

B1: 10D1F.FcA (antibody, human IgG1, kappa)
heavy: not shown
light: DIQMTQSPSSVSASVGDRVTITCKASQIVGSNVAWYQQKPGKAPEPLIYSASYLYSGVPSRFSGSGSGTDFTLTISSLQPEDFATYYCQQYSSHPLTFGQGTKLEIKRTVAAPSVFIFPPSDEQLKSGTASVVCLLNNFYPREAKVQWKVDNALQSGNSQESVTEQDSKDSTYSLSSTLTLSKADYEKHKVYACEVTHQGLSSPVTKSFNRGEC
notes: the full chains 206/207 are used here; also called 10D1F.A; anti-HER3 clone 10D1_c89 IgG1
binding result (human EGFR [1]): no binding (tested: last point at about log(M) -8.1)
binding result (human HER2 [2]): no binding (tested: last point at about log(M) -8.1)

% Parent (HER3 Positive) [3]: 41.9%
B2: anti-HER3 clone 10D1_c90 IgG1 (antibody, V domains shown)
VH: QVQLQESGPGLVKPSQTLFLTCTVSGYSITSGYSWHWIRQHPGKGLEWIGSIRYSGGTDYNPSLKSLVTISVDTSKNQFSLKLSSVTAADTAVYYCARMTTAPWYPFDYWGQGTTVTVSS
VL: DIQMTQSPSSVSASVGDRVTFTCKASQIVGSNVAWYQQKPGKAPEPLIYSASYLYSSVPSRFSGSGSGTEFTMTISSLEPEDFATYYCQQYTTHPLTFGPGTKVEIKR
notes: IgG1/kappa

B3: anti-HER3 clone 10D1 IgG1 (antibody)
heavy: not shown
light: DIVMTQSQKFMSTSVGDRVSVTCKASQIVGSNVAWYQQKPGQSPKPLIYSASYRYSGVPDRFTASGSGTDFTLTITNVQSEDLAEYFCQQYSSHPLTFGAGTKLELKRTVAAPSVFIFPPSDEQLKSGTASVVCLLNNFYPREAKVQWKVDNALQSGNSQESVTEQDSKDSTYSLSSTLTLSKADYEKHKVYACEVTHQGLSSPVTKSFNRGEC
notes: also called 10D1P; 10D1 (parental)
binding result (human HER2 [4]): no binding (tested: about 2e-7 M (log -6.7))
binding result (human EGFR [5]): no binding (tested: about 2e-7 M (log -6.7))
